From the DeepSol protein solubility set come the findings set out here.

This data set in a line: soluble on expression in E. coli; label from the status in PepcDB or PDB records.
For the sequence “MALKTDIRGMIWRYPDYFIVGREQCREFARAVKCDHPAFFSEEAAADLGYDALVAPLTFVTILAKYVQLDFFRHVDVGMETMQIVQVDQRFVFHKPVLAGDKLWARMDIHSVDERFGADIVVTRNLCTNDDGELVMEAYTTLMGQQGDGSARLKWDKESGQVIRTALEHHHHHH”, the “soluble on expression in E. coli” value was “not soluble”.
For “QLVLTQSSSASFSLGASAKLTCTLSSQHSTYTIEWYQQQPLKPPKYVMDLKQDGSHSTGDGIPDRFSGSSSGADRYLSISNIQPEDEAMYICGVGDTIKEQFVYVFGGGTKVTVLGEPKSTPTLTVFPPSSEELKENKATLVCLISNFSPSGVTVAWKANGTPITQGVDTSNPTKEGNKFMASSFLHLTSDQWRSHNSFTCQVTHEGDTVEKSLSPAECL” the value was “soluble”; for “TGAITVGNKNNDKLTLWTTPAPSPNCRLNAEKDAKLTLVLTKCGSQILATVSVLAVKGSLAPISGTVQSAHLIIRFDENGVLLNNSFLDPEYWNFRNGDLTEGTAYTNAVGFMPNLSAYPKSHGKTAKSNIVSQVYLNGDKTKPVTLTITLNGTQETGDTTPSAYSMSFSWDWSGHNYINEIFATSSYTFSYIAQE”, “soluble”.
For “MTEIQKPYDLKGRSLLKESDFTKAEFEGLIDFAITLKEYKKNGIKHHYLSGKNIALLFEKNSTRTRAAFTVASIDLGAHPEFLGKNDIQLGKKESVEDTAKVLGRMFDGIEFRGFSQQAVEDLAKFSGVPVWNGLTDDWHPTQMLADFMTIKENFGYLEGINLTYVGDGRNNIAHSLMVAGAMLGVNVRICTPKSLNPKEAYVDIAKEKASQYGGSVMITDNIAEAVENTDAIYTDVWVSMGEESEFEQRINLLKDYQVNQQMFDLTGKDSTIFLHCLPAFHDTNTLYGQEIYEKYGLAEMEVTDQIFRSEHSKVFDQAENRMHTIKAVMAATLGS” the value was “not soluble”; for “MSFFNPPANSNHGYNDDVNTGYNARMHSKLAEREGFHLGNGSDEPRTLYVGNLDSTVTEDFIATLFNQIGSVTKTKVIFDGSNDPYAFVEFSDHGQASQALQTMNKRLLLDREMKVNWAVEPGQQQSKIDTTRHFHVFVGDLSSEVDNQKLREAFQPFGDVSDAKVIRDTNTTKSKGYGFVSYPKREEAERAIEQMNGQWLGRRTIRTNWATRKPGDQEKPSHYNEKSYDEIYNQTSGDNTSVYVGNIASLTEDEIRQGFASFGRITEVRIFKMQGYAFVKFDNKDAAAKAIVQMNNQDVGGQLVRCSWGKTGDTGKTPGGSYGYGYGNSSSGGNSQPYSGYGGGGAYGGGQGGGGHGGPGQQQSNANSQYWQYYAQYYNNPQLMQQWSNYWQQQGGAPQQQNSGGHQ”, “not soluble”.
For “MGSDKIHHHHHHMTKHFSPYDADKPLFATCSCGQHASEEDHLKAGMSTLEHQETGRSTEEEFSNDFIEAALVKAILPHERQRRDFLRAVGKGAAMAAISAVFPLGSLKAMAMEKGSIEKSTLKVGFIPITCAAPLILAEPMGFFKEQGLNVELNKTAGWALVRDKIMNHEYDASQFLAPMPLAMTLGAGSSAQTVNVAAIQNVNGQAIVLALKHKSNRDPKNWKGFKFAIPFEFSMHNFLLRYYLAEAGIDPDRDVQLRVVPPAEMLANLRAGNIDGFLGPDPFSQRAVFEGVGFIHILSQDIWNGHPCCSFGASASFIQQNPNTFAALYRAFLKSSAFAHDKNNRKEVAAIISKPKYLNQPEIIVNQVITGRYADGLGNIVNAPGRVGFEAIPWEGMALWMLTQMKRWGYLKGDVSYQAIAEKVFMMTDAKKAMQGLGLEVPQSSGKIVVMGKAFDPLKPQSYVDSFGIKR” the value was “not soluble”; for “MGSDKIHHHHHHMKRMTKIGIYGMAVWMLSACGNGTPDYDATGTFEATEVIVSAEAAGKLLQLEVEEGTRLKAGEEVGLVDTVQLYLKKLQLEASMKSVESQRPDLAKQIAATKQQITTAQREKKRVENLLAAGAANQKQLDDWDAQVTLLQQQLIAQESSLMKSTNSLTEQGNSVSIQVAQVEDQLNKCHIQSPIEGTVLAKYAEGGELASVGKPLFKVGEVDRMYLRAYVTSEQLSQVKLGDKVTVYSDYGNSEQKAYPGVVTWISDRSEFTPKTILTKNERANLVYAVKIAVKNDGSLKIGMYGGVVWKKENP”, “not soluble”; for “MYHHGFHYYSTNNSHSYSRTRNPPKSWNLGPHELGSSTDPENRAMQESIINSVSEQTLQSWIDFREEINKKNLLLRNKLKIPSEKIDDKYHTFPEKKQSDYADAEIYAGSDASQPSRNEYDRSKYVLNRKVRCAPTEIITDSSQSPGASPSSDQIFIDDSQPSTTKRRWVISEPDDNSDKHVSSSENHQQREKIISPTEKTLQKSTSSNSSPTLKLFVTVPSSSNQECILHKYGHCIAPQICPFAHDGVVRKLEKKTVTAPFWQRKLPNISLCPGYPTLKCWDHKCGKRHILYPSDNI”, “not soluble”.
“MNDNEKQLDLRIRRTHKLLWDSLFELMTQSKQKYSTITINQICDRAMVHRTTFYKHFEDKDALLTFGFKRYGKMIAEIPVSDRLSKPFQVMEQFLHHEEIGKILETQMSDEQFINRTQYLSHETRKQEIEALNQLHKNHTMPNDLIIEFYSGAITSLSAWWFKSERKVSAAEMDRYLHQLINRDIFQFEKE”: the “soluble on expression in E. coli” value was “not soluble”.
Turning to “MSLSPGKKRAMINRDHPKLSISQQCKLVSLSRSAFYYTPAGIDADTLSMMKEIDRVFTKYPFFGSRQIAAYLRREGIVVGRHRVRRLMAKMGLEAVYKRPRTSQPHPQHPVFPYLLRKMVIDRPNQVWCADITFVPVRNGFLYLVAIMDWATRKVLSWRLSNTMHADFCVEALSEAIARYGPPEIMNTDQGSQFTGSAWITTLTEAGVRISMDGRGRYLDNIFIERLWRSLKQEAIYLEEINEGFRARRVIKGWMAFYNTSRPHSALDRQTPDDAYWAGLEERHAAEGHHHHHH”, the “soluble on expression in E. coli” value was “not soluble”.
For the sequence “GMKAADFTYVTVHGDNSRMSRLKAQYTMLFFYDPDCSNCRKFEKLFAEIPAFVEMVENGTLRVLAIYPDENREEWATKAVYMPQGWIVGWNKAGDIRTRQLYDIRATPTIYLLDGRKRVILKDTSMEQLIDYLATQAG”, the “soluble on expression in E. coli” value is on record as “not soluble”.
Next, “GQELPPGTYRVDIYLNNGYMATRDVTFNTGDSEQGIVPCLTRAQLASMGLNTASVAGMNLLADDACVPLTTMVQDATAHLDVGQQRLNLTIPQAFMSNRARGYIPPELWDPGINA”: “soluble”; “GPLGSGEEEPLPPRWSMQVAPNGRTFFIDHASRRTTWIDPRNGRAS”: “soluble”.
Regarding “MGSDKIHHHHHHMTVGTLPIWSKTFSYAIRSLCFLHIIHMYAYEFTETRGESMLPTLSATNDYVHVLKNFQNGRGIKMGDCIVALKPTDPNHRICKRVTGMPGDLVLVDPSTIVNYVGDVLVDEERFGTYIKVPEGHVWVTGDNLSHSLDSRTYNALPMGLIMGKIVAANNFDKPFWDGSIRNIWGFKWINNTFLDVQAKSN”, the “soluble on expression in E. coli” value was “not soluble”.
Take “MNTGHHKVADTLIDFLHRQFPWVESKKIDFLSYCNELMEKMVSGAYLRWIRSHPASYHRVYKTFMYEESLRLEFVSFEPWLPYFEGKMKKMLEQERPDLIVCTHSFPSRILQQLKRKKVLAIPVVNVYTDFFMNSIWGKRFIDYHFVPHQEAKRELIVKHGIDERRIVVTGIPAAALEHHHHHH”: the “soluble on expression in E. coli” value is given as “soluble”.
For “MGHHHHHHSHMINQRMIHMKNTKLLLAIATSAALLTGCQNTHGIDTNMAISSGLNAYKAATLSDADAKAIANQGCAEMDSGNQVASKSSKYGKRLAKIAKALGNNINGTPVNYKVYMTSDVNAWAMANGCVRVYSGLMDMMNDNEIEGVLGHELGHVALGHSLAEMKASYAIVAARDAISATSGVASQLSRSQLGDIAEGAINAKYSRDKESEADDFSFDLLKKRGISTQGLVGSFETLASLDGGRTQSMFDSHPPSTERAQHIRDRIASGK” the value was “not soluble”; for “MATRFMTDPHAMRDMAGRFEVHAQTVEDEARRMWASAQNISGAGWSGMAEATSLDTMAQMNQAFRNIVNMLHGVRDGLVRDANNYEQQEQASQQILSS”, “not soluble”.
In the case of “MAHHHHHHMTDMELVEALNATEVPIARAVFLMISAVQDADAGDNKTWSCCHPDRSPAASPGSTTGWRSLRESPSGPAVIEVCYNDGADSFLTVKWVPMDKTHLVMITQRSDRERSHQPLNTSFCIEDEPLASLVLGQQTGSGASAAAMWTAESLGSALHRLRCLLQSAIGNTGRGSEQNEKFSAAQDSDCGRELPSPRRRNLVILNSTAVDPPLLLPLPCLPKAVCYLREWSRVLPAPVTAKRISSPVVEVLVWVAA”, the “soluble on expression in E. coli” value is recorded as “soluble”.
As for “MNNKLIYRSVRFATHNSQLLLPPLVLYRRILRQHKLLPGPQREMGDQYVRNEFKLHKDIDNPLHIVGFLASWQDYLHMISNGKWKDATLSSETLEKLSPEQTVQLYELMKETQKLHQDNEIESSKDVKRNNKD”, the “soluble on expression in E. coli” value is on record as “not soluble”.
As to “MSLAQAPHPERIYLSGTGIDNTKTWDFFCSAGQNSGKWKKIEVPCNWELQGFGEYTYGRWYTIKGQHPSDETGTYRYKFDAPKSWAGQRVKIFFDGVMTDAEIMINGKPAGEMHQGGFYRFNYDITELLNLGKKNQLEVKVAKESANRSINAAERKADWWLFGGIYRPVWLEVLPQIHMEHFVLNADHQGKLQAAVDMAGDAKGHEIIVSVRSLKDGKTVYTSNGQTTITHSISNSDKEQMISGEWASIIPWSTENPNLYVAKLELKNPEGKIVQTRETRIGFRTVEFFPQDGVYLNGTKLVVKGINRHSFSVDGGRTTSAALSRMDALLIKEMNMNAVRSHYPPDEHFLDMCDSLGLVYMDELAGWQNGYDSRVGAKLVKEMIERDVNHPCIILWSNGNEGGWNTQTDPLFAQYDRLQKRHMVHPWADFNDLDTHHYPTYLTGVARFTNGYKVFMPTEFMHAMYDQGGGAGLRDFWDRWCTNPLFAGGFIWVYCDEAPKRSDKGGILDSDKSNAPDGVVGPRREKEGSYYAIRAQWSPIQLKPLLITNHFDGRFLLTNEYTFTNLKDCRMTYKVLSCGTPLQGNAEAGKVIAEGKVQLPSINPGETGTARFELPDSFRKGDVLELEAFDREGKSICNWTYPIHLAKQYFERNLAQTTLTPAPQKAEARQTSDAIELKSSKVSITFDAATGMIRHIKSGETEVPFKDGPVAIGMKMRYEPSLSYTRHSSDGAIYCAKYKGAADSIVWRLTNEGLLYMDAILLNRGSGGGGFDDAFMDAQVFNLGLSFSYPEQNCSGMKWMGRGPYRVWKNRIPGTNYGIWHKDYNNTITGESFENLIYPEFKGYHANLYWATLEGEKTSFTVYSRNDGTFFRVFTPEEPAGRIKDTMPAFPEGDLSFLLDIPAICSFKPIEQQGPNSQPGNIRIKSGDEGLHLNLMFDFREGHHHHHH”, the “soluble on expression in E. coli” value is given as “soluble”.
“MTEHTSSYYAASANKYAPFDTLNESITCDVCVVGGGYTGLSSALHLAEAGFDVVVLEASRIGFGASGRNGGQLVNSYSRDIDVIEKSYGMDTARMLGSMMFEGGEIIRERIKRYQIDCDYRPGGLFVAMNDKQLATLEEQKENWVRYGNKQLELLDVNAIRREVASDRYTGALLDHSGGHIHPLNLAIGEADAIRLNGGRVYELSAVTQIQHTTPAVVRTANGQVTAKYVIVAGNAYLGDKVEPELAKRSMPCGTQVITTERLSEDLARSLIPKNYCVEDCNYLLDYYRLTADNRLLYGGGVVYGARNPDDVERLVVPKLLKTFPQLKGVKIDYRWTGNFLLTLSHMPQFGRLDTNIYYMQGYSGHGVTCTHLAGRLIAELLRGDAERFDAFANLPHYPFPGGRTLRVPFTAMGAAYYSLRDRLGV”: the “soluble on expression in E. coli” value is on record as “not soluble”.
